Assay results reported in PMC3078058 (Nature, 2011).

B1: CusA inner membrane RND efflux pump (natural protein, Escherichia coli, UniProt P38054 1-1047, looked up)
chain: MIEWIIRRSVANRFLVLMGALFLSIWGTWTIINTPVDALPDLSDVQVIIKTSYPGQAPQIVENQVTYPLTTTMLSVPGAKTVRGFSQFGDSYVYVIFEDGTDPYWARSRVLEYLNQVQGKLPAGVSAELGPDATGVGWIYEYALVDRSGKHDLADLRSLQDWFLKYELKTIPDVAEVASVGGVVKEYQVVIDPQRLAQYGISLAEVKSALDASNQEAGGSSIELAEAEYMVRASGYLQTLDDFNHIVLKASENGVPVYLRDVAKVQIGPEMRRGIAELNGEGEVAGGVVILRSGKNAREVIAAVKDKLETLKSSLPEGVEIVTTYDRSQLIDRAIDNLSGKLLEEFIVVAVVCALFLWHVRSALVAIISLPLGLCIAFIVMHFQGLNANIMSLGGIAIAVGAMVDAAIVMIENAHKRLEEWQHQHPDATLDNKTRWQVITDASVEVGPALFISLLIITLSFIPIFTLEGQEGRLFGPLAFTKTYAMAGAALLAIVVIPILMGYWIRGKIPPESSNPLNRFLIRVYHPLLLKVLHWPKTTLLVAALSVLTVLWPLNKVGGEFLPQINEGDLLYMPSTLPGISAAEAASMLQKTDKLIMSVPEVARVFGKTGKAETATDSAPLEMVETTIQLKPQEQWRPGMTMDKIIEELDNTVRLPGLANLWVPPIRNRIDMLSTGIKSPIGIKVSGTVLADIDAMAEQIEEVARTVPGVASALAERLEGGRYINVEINREKAARYGMTVADVQLFVTSAVGGAMVGETVEGIARYPINLRYPQSWRDSPQALRQLPILTPMKQQITLADVADIKVSTGPSMLKTENARPTSWIYIDARDRDMVSVVHDLQKAIAEKVQLKPGTSVAFSGQFELLERANHKLKLMVPMTLMIIFVLLYLAFRRVGEALLIISSVPFALVGGIWLLWWMGFHLSVATGTGFIALAGVAAEFGVVMLMYLRHAIEAVPSLNNPQTFSEQKLDEALYHGAVLRVRPKAMTVAVIIAGLLPILWGTGAGSEVMSRIAAPMIGGMITAPLLSLFIIPAAYKLMWLHRHRVRK
B2: CusB membrane fusion protein (natural protein, Escherichia coli, UniProt P77239 29-407, looked up)
chain: EPPAEKTSTAERKILFWYDPMYPNTRFDKPGKSPFMDMDLVPKYADEESSASGVRIDPTQTQNLGVKTATVTRGPLTFAQSFPANVSYNEYQYAIVQARAAGFIDKVYPLTVGDKVQKGTPLLDLTIPDWVEAQSEYLLLRETGGTATQTEGILERLRLAGMPEADIRRLIATQKIQTRFTLKAPIDGVITAFDLRAGMNIAKDNVVAKIQGMDPVWVTAAIPESIAWLVKDASQFTLTVPARPDKTLTIRKWTLLPGVDAATRTLQLRLEVDNADEALKPGMNAWLQLNTASEPMLLIPSQALIDTGSEQRVITVDADGRFVPKRVAVFQASQGVTALRSGLAEGEKVVSSGLFLIDSEANISGALERMRSESATHAH

Columns and labels:
crystal structure = biological target: the molecule itself; experiment: crystal structure
[1] = biological target: B1; experiment: ITC

Binder	stoichiometry N (crystal structure)	Kd [1] [µM]
B1	3	–
B2	6	5.1 ± 0.3
